According to paper PMC8293163 (2021):

B1: 10E8v4-P100fA Fab (Fab, V domains shown)
VH: EVRLVESGGGLVKPGGSLRLSCSASGFDFDNAWMTWVRQPPGKGLEWVGRITGPGEGWSVDYAESVKGRFTISRDNTKNTLYLEMNNVRTEDTGYYFCARTGKYYDFWSGYAPGEEYFQDWGQGTLVIVSS
VL: ASELTQDPAVSVALKQTVTITCRGDSLRSHYASWYQKKPGQAPVLLFYGKNNRPSGIPDRFSGSASGNRASLTITGAQAEDEADYYCSSRDKSGSRLSVFGGGTKLTVL
B2: 10E8v4-P100fA-P100gA Fab (Fab, V domains shown)
VH: EVRLVESGGGLVKPGGSLRLSCSASGFDFDNAWMTWVRQPPGKGLEWVGRITGPGEGWSVDYAESVKGRFTISRDNTKNTLYLEMNNVRTEDTGYYFCARTGKYYDFWSGYAAGEEYFQDWGQGTLVIVSS
VL: ASELTQDPAVSVALKQTVTITCRGDSLRSHYASWYQKKPGQAPVLLFYGKNNRPSGIPDRFSGSASGNRASLTITGAQAEDEADYYCSSRDKSGSRLSVFGGGTKLTVL
B3: 10E8v4-H31FLC Fab (Fab, V domains shown)
VH: EVRLVESGGGLVKPGGSLRLSCSASGFDFDNAWMTWVRQPPGKGLEWVGRITGPGEGWSVDYAESVKGRFTISRDNTKNTLYLEMNNVRTEDTGYYFCARTGKYYDFWSGYPPGEEYFQDWGQGTLVIVSS
VL: SELTQDPAVSVALKQTVTITCRGDSLRSFYASWYQKKPGQAPVLLFYGKNNRPSGIPDRFSGSASGNRASLTITGAQAEDEADYYCSSRDKSGSRLSVFGGGTKLTVL
B4: 10E8v4-P100gA Fab (Fab, V domains shown)
VH: EVRLVESGGGLVKPGGSLRLSCSASGFDFDNAWMTWVRQPPGKGLEWVGRITGPGEGWSVDYAESVKGRFTISRDNTKNTLYLEMNNVRTEDTGYYFCARTGKYYDFWSGYPAGEEYFQDWGQGTLVIVSS
VL: ASELTQDPAVSVALKQTVTITCRGDSLRSHYASWYQKKPGQAPVLLFYGKNNRPSGIPDRFSGSASGNRASLTITGAQAEDEADYYCSSRDKSGSRLSVFGGGTKLTVL
B5: 10E8v4 Fab (Fab, V domains shown)
VH: EVRLVESGGGLVKPGGSLRLSCSASGFDFDNAWMTWVRQPPGKGLEWVGRITGPGEGWSVDYAESVKGRFTISRDNTKNTLYLEMNNVRTEDTGYYFCARTGKYYDFWSGYPPGEEYFQDWGQGTLVIVSS
VL: SELTQDPAVSVALKQTVTITCRGDSLRSHYASWYQKKPGQAPVLLFYGKNNRPSGIPDRFSGSASGNRASLTITGAQAEDEADYYCSSRDKSGSRLSVFGGGTKLTVL

Columns and labels:
[1] = target: T117-F MPER scaffold; assay: BLI
[2] = target: T117-F MPER scaffold; assay: BLI; remark: listed apart in the source

| Binder | koff [1] [s⁻¹] | Kd [2] [nM] |
| --- | --- | --- |
| B1 | 0.021 | 103 |
| B2 | 0.0583 | 2750 |
| B3 | 0.0364 | 1460 |
| B4 | 0.0314 | 171 |
| B5 | 0.00137 | 9.4 |
